The assay addresses ADAM9-P750L (rs144750648) (human) (UniProt Q13443). More on the design: unit not given beside the values.

Primed or numbered codes have the meaning given here. The star is where a group is joined. 5FAM = O=C1OC2(c3ccc(O)cc3Oc3cc(O)ccc32)c2ccc(C(=O)*)cc21; Dabcyl′ = CN(C)c1ccc(/N=N/c2ccc(C(=O)*)cc2)cc1

UniProt Q13443, sequence (Q13443 29-819 P750L): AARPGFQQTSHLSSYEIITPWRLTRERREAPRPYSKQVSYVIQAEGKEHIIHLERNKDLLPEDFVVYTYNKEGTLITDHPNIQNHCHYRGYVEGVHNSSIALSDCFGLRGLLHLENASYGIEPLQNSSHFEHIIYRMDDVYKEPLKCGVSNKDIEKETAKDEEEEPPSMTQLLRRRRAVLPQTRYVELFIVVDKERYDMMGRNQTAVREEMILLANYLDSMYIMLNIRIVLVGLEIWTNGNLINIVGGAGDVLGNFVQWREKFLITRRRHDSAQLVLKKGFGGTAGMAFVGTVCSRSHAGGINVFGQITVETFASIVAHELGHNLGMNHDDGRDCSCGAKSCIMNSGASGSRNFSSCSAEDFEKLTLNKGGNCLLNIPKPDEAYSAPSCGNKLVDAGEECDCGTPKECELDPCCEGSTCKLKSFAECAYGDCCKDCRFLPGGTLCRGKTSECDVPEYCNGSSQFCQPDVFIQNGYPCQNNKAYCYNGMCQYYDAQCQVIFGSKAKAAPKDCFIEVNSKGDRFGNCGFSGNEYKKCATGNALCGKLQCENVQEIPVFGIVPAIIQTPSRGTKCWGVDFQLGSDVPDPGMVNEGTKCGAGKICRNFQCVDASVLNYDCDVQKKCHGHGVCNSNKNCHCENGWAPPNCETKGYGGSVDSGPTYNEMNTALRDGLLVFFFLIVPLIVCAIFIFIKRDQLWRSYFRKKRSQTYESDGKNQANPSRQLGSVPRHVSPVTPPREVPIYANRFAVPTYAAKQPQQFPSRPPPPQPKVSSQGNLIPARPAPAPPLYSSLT

B1: ADAM9 fluorogenic substrate PEPDAB010 (Dabcyl-…[5-FAM]-NH2) (peptide)
peptide: {Dabcyl′}-SPLAQAVRSSK(5FAM)-NH2
SMILES: CC(C)C[C@H](NC(=O)[C@@H]1CCCN1C(=O)[C@H](CO)NC(=O)c1ccc(/N=N/c2ccc(N(C)C)cc2)cc1)C(=O)N[C@@H](C)C(=O)N[C@@H](CCC(N)=O)C(=O)N[C@@H](C)C(=O)N[C@H](C(=O)N[C@@H](CCCNC(=N)N)C(=O)N[C@@H](CO)C(=O)N[C@@H](CO)C(=O)N[C@@H](CCCCNC(=O)c1ccc2c(c1)C(=O)OC21c2ccc(O)cc2Oc2cc(O)ccc21)C(N)=O)C(C)C
On to B1, for which the Km of cleavage of the fluorogenic substrate PEPDAB010 (Lineweaver-Burk plot, lysates of transfected HEK293 cells), reduction compared to ADAM9 WT (% reduction of Km compared to ADAM9 WT) amounted to 41.9.

The values above are taken from article PMC12052454.
